# Results taken from patent US20250376490A1, “C[…]-DERIVED PEPTIDE-NUCLEIC ACID HYBRID MOLECULE FOR TREATING INFECTION CAUSED BY MUTATED CORONAVIRUS” (priority 2022, published 2025).
# Target: Omicron RBD (Severe acute respiratory syndrome coronavirus 2, UniProt P0DTC2, E484A/G339D/G446S/G496S/K417N/N440K/N501Y/Q493R/Q498R/S371L/S373P/S375F/S477N/T478K/Y505H)
substance,measurement,value
R7-02 (LGKGDFRK),RBD binding to highly mutated variant (Omicron) versus wild type,most strongly recognized
